Assay results from patent US20080241172A1 (CENTRE NATIONAL DE LA RECHERCHE SCIENTIFIQUE, published 2008).
Changes are numbered by the printed parent chain. Names and notes keep the numbering of the source.

B1: Torpedo AChET mutant S19C (containing two cysteines at positions 19 and 37) (enzyme)
chain: DDDSELLVNTKSGKVMRTRIPVLSSHISAFLGIPFAEPPVGNMRFRRPEPKKPWSGVWNASTYPNNCQQYVDEQFPGFPGSEMWNPNREMSEDCLYLNIWVPSPRPKSATVMLWIYGGGFYSGSSTLDVYNGKYLAYTEEVVLVSLSYRVGAFGFLALHGSQEAPGNMGLLDQRMALQWVHDNIQFFGGDPKTVTLFGESAGRASVGMHILSPGSRDLFRRAILQSGSPNCPWASVSVAEGRRRAVELRRNLNCNLNSDEDLIQCLREKKPQELIDVEWNVLPFDSIFRFSFVPVIDGEFFPTSLESMLNAGNFKKTQILLGVNKDEGSFFLLYGAPGFSKDSESKISREDFMSGVKLSVPHANDLGLDAVTLQYTDWMDDNNGIKNRDGLDDIVGDHNVICPLMHFVNKYTKFGNGTYLYFFNHRASNLVWPEWMGVIHGYEIEFVFGLPLVKELNYTAEEEALSRRIMHYWATFAKTGNPNEPHSQESKWPLFTTKEQKFIDLNTEPIKVHQRLRVQMCVFWNQFLPKLLNATETIDEAERQWKTEFHRWSCYMMHWKNQFDQYSRHENCAEL
notes: It may include a signal peptide; also called mutated torpedo AChE
B2: Torpedo AChET mutant with M21 of the t peptide replaced by a cysteine (enzyme)
chain: B1 chain with C554S, M556C
B3: Torpedo AChET mutant with M22 of the t peptide replaced by a cysteine (enzyme)
chain: B1 chain with C554S, M557C
B4: Torpedo AChET mutant with H34 of the t peptide replaced by a cysteine (enzyme)
chain: B1 chain with C554S, H569C
B5: Torpedo AChET mutant with residue 3 of the t peptide replaced by a cysteine, with mutation of C37 (C37S) (enzyme)
chain: B1 chain with I538C, C554S, C572S
notes: also called 13 (printed; read as I3) with C37S
B6: Torpedo AChET mutant with A6 of the t peptide replaced by a cysteine, with mutation of C37 (C37S) (enzyme)
chain: B1 chain with A541C, C554S, C572S
notes: also called A6 with C37S
B7: Torpedo AChET mutant with T12 of the t peptide replaced by a cysteine, with mutation of C37 (C37S) (enzyme)
chain: B1 chain with T547C, C554S, C572S
notes: also called T12 with C37S
B8: Torpedo AChET mutant S19C/C37S (enzyme)
chain: B1 chain with C572S
notes: also called S19 with C37S
B9: Torpedo AChET mutant with M21 of the t peptide replaced by a cysteine, with mutation of C37 (C37S) (enzyme)
chain: B1 chain with C554S, M556C, C572S
notes: also called M21 with C37S
B10: Torpedo AChET mutant with M22 of the t peptide replaced by a cysteine, with mutation of C37 (C37S) (enzyme)
chain: B1 chain with C554S, M557C, C572S
notes: also called M22 with C37S
B11: Torpedo AChET mutant with H34 of the t peptide replaced by a cysteine, with mutation of C37 (C37S) (enzyme)
chain: B1 chain with C554S, H569C, C572S
notes: also called H34 with C37S
B12: Torpedo AChET mutant with residue 3 of the t peptide replaced by a cysteine (enzyme)
chain: B1 chain with I538C, C554S
notes: also called 13 (printed; read as I3)
B13: Torpedo AChET mutant with A6 of the t peptide replaced by a cysteine (enzyme)
chain: B1 chain with A541C, C554S
B14: wild type Torpedo AChET (enzyme)
chain: B1 chain with C554S
notes: The wild type is built by undoing that change; Expressed in transfected COS cells; cell extracts and medium were analysed; also called wild type AChET subunits
B15: Torpedo AChET mutant T12C (enzyme)
chain: B1 chain with T547C, C554S
B16: Torpedo AChET mutant C37S (enzyme)
chain: B1 chain with C554S, C572S

Biological target: the molecule itself
Test: homodimers from transfected COS cells; sedimentation in sucrose gradients
Procedure: (§1) COS cells were transfected by the DEAE-dextran method, as previously described (Bon et al., 1997), using 4 μg of DNA encoding the AChE catalytic subunit and 4 μg of DNA encoding QN or PRAD-deleted QN, per 100 mm dish. Because Torpedo AChE folds into its active conformation at 27° C., but not at 37° C., the cells were incubated for two days at 37° C. after transfection, then transferred to 27° C. and maintained at this temperature for 3-4 days, in a medium containing 10% Nuserum (Inotech, Dottikon, Switzerland), which had been pretreated with 10⁻⁶ M soman to inactivate serum choline sterases.
(§2) Centrifugation was performed in 5-20% sucrose gradients (50 mM Tris-HCl, pH 7.5, 50 mM MgCl₂, either in the presence of 0.2% Brij-97 or in the presence of 0.2% Triton X-100) in a Beckman SW41 rotor, at 36,000 rpm, for 18 h at 6° C. The gradients contained Escherichia coli β-galactosidase (16 S) and alkaline phosphatase (6.1 S) as internal sedimentation standards (Bon et al., 1997). Amphiphilic molecules generally sediment faster in the presence of Triton X100 than of Brij-97, providing an indication on their amphiphilic character.

Binding result, binds:
B1
B2
B3
B4
B5
B6
B7
B8
B9
B10
B11
B12
B13

Biological target: the molecule itself
Test: homo-oligomers from transfected COS cells; sedimentation in sucrose gradients
Procedure: as §1, §2

Binding result, binds:
B14
B15

Biological target: the molecule itself
Test: homo-oligomers from transfected COS cells; sedimentation in sucrose gradients (tetramers still formed, dimers not)
Procedure: as §1, §2

Binding result, binds:
B16
